Test [1] addresses transferrin receptor (TfnR, CD71) on cells (UniProt P02786). Kind of test: cell-based or functional assay.
Test [2] concerns the target T1, recombinant Ovr110-hFc encoded by Ovr110 Construct 2 (human).
T1 construct: Captured on plates by goat anti-human IgG Fc; also called Ovr110-hFc (with TM)
T1 chain: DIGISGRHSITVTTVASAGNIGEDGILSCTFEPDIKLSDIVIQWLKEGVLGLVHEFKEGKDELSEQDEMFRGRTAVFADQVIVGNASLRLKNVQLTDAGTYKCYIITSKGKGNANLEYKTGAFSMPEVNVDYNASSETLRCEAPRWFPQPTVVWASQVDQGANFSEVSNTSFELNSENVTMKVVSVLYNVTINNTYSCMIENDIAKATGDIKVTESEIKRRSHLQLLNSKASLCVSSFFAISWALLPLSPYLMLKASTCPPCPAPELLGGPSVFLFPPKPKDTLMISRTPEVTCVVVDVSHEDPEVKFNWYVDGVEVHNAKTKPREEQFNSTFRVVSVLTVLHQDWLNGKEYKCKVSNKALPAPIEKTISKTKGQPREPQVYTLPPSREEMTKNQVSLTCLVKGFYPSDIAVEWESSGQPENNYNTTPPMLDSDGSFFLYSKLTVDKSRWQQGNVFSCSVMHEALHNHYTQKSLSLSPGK
Description: competition ELISA; row = unlabeled blocking MAb; competitor = biotinylated detecting MAb Q23.6. A general note: ELISA stands for enzyme-linked immunosorbent assay.

Test [3] has as its target T1, recombinant Ovr110-hFc encoded by …. Description: competition ELISA; row = unlabeled blocking MAb; competitor = biotinylated detecting MAb Q27.4.
The target is the same in test [4]. Description: competition ELISA; row = unlabeled blocking MAb; competitor = biotinylated detecting MAb A87.1.
For test [5], the target named is T2, native Ovr110 protein on tumor cells (ZR-75-1, SKBR3, RL95.2, OVCAR3) (human, UniProt Q7Z7D3 25-282).
T2 construct: whole, on cells; Endogenous protein of Ovr110-positive tumor cell lines; also called B7-H4; B7x
T2 sequence (looked up): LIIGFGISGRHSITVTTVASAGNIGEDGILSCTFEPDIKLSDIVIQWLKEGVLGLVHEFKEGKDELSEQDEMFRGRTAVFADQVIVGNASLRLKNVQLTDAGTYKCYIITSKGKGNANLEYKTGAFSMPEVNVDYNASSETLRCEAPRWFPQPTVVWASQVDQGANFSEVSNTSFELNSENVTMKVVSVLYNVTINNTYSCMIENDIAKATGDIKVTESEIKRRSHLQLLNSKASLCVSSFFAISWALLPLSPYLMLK
Description: flow cytometry; purified MAb; SKBR3 cells. For orientation: In flow cytometry, cells or beads pass a laser one at a time.

Test [6] addresses T1, recombinant Ovr110-hFc encoded by …. Description: competition ELISA; row = unlabeled blocking MAb; competitor = biotinylated detecting MAb Q15.2.
Test [7] shares this target. Description: competition ELISA; row = unlabeled blocking MAb; competitor = biotinylated detecting MAb Q3.1.
Test [8] has the same target. Kind of test: competition ELISA; row = unlabeled blocking MAb; competitor = biotinylated detecting MAb Q12.2.
Test [9] addresses T2, native Ovr110 protein on tumor cells …. Description: cell-based or functional assay.
The target is the same in test [10]. Kind of test: cell-based or functional assay. This is another data set of the same source.
Test [11] addresses T3, Ovr110 (amino acids 1-282; Ovr110 Construct 1 without the 6-His tag) expressed on transiently transfected … (human, UniProt Q7Z7D3 25-282).
T3 construct: signal peptide not removed here
T3 sequence: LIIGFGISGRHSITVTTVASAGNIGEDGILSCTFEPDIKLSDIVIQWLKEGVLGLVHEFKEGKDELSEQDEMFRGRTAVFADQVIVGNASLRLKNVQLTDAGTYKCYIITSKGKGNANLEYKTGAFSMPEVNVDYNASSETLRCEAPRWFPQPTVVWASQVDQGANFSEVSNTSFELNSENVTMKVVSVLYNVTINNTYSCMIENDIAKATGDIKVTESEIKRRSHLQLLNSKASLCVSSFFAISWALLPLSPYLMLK
Description: flow cytometry; hybridoma supernatant; Ovr110-transfected 293F cells.

The target in test [12] is T2, native Ovr110 protein on tumor cells …. Description: flow cytometry titration of fluorescein-labeled MAb on ZR75-1 cells; one-site fit.
In test [13] the target is T1, recombinant Ovr110-hFc encoded by …. Kind of test: competition ELISA; row = unlabeled blocking MAb; competitor = biotinylated detecting MAb C6.3.
Test [14] addresses T3, Ovr110 (amino acids 1-282; Ovr110 …). Kind of test: flow cytometry; purified MAb; Ovr110-transfected 293F cells.
In test [15] the target is T2, native Ovr110 protein on tumor cells …. Description: flow cytometry; hybridoma supernatant; SKBR3 cells.
Test [16] has the same target. Description: flow cytometry; purified MAb; ZR-75-1 cells.
Test [17] concerns the target T1, recombinant Ovr110-hFc encoded by …. Description: competition ELISA; row = unlabeled blocking MAb; competitor = biotinylated detecting MAb Q19.6.
The target is the same in test [18]. Description: competition ELISA; row = unlabeled blocking MAb; competitor = biotinylated detecting MAb Q11.12.3.

Chain of transferrin receptor (TfnR, CD71) on cells (P02786 whole entry): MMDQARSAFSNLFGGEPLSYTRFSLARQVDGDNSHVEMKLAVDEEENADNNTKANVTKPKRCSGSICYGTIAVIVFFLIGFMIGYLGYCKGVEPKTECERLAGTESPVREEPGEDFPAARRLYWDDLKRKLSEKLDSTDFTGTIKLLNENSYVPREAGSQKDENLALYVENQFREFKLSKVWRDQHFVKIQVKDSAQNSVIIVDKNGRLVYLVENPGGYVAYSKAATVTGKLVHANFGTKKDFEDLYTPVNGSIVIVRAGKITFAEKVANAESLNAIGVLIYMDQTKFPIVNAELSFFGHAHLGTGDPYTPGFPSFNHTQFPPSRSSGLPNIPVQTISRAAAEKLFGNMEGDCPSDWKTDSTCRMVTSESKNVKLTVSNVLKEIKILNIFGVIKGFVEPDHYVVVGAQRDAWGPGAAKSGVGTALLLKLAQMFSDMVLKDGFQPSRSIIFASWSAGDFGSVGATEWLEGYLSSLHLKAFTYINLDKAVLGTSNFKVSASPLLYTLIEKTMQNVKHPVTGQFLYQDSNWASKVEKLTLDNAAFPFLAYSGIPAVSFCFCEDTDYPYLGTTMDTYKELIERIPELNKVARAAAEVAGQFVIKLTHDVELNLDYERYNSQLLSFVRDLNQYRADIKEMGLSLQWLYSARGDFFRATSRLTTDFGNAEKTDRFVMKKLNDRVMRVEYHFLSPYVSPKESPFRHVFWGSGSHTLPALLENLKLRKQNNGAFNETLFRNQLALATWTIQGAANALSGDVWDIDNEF

In test [1], anti-TfnR MAb 5E9 (ATCC) (antibody) displayed a Percentage growth compared to wells with media alone; HCT116; MAb 2.0 ug/mL with 1.0 ug/mL mAb-ZAP of 24.9%, a Percentage growth compared to wells with media alone; SKBR3; MAb 0.4 ug/mL with 1.0 ug/mL mAb-ZAP of 18.4%, a Percentage growth compared to wells with media alone; SKBR3; MAb 2.0 ug/mL with 1.0 ug/mL mAb-ZAP of 44.6% and a Percentage growth compared to wells with media alone; ZR-75-1; MAb 0.4 ug/mL with 1.0 ug/mL mAb-ZAP of 35%. Besides, the Percentage growth compared to wells with media alone; ZR-75-1; MAb 2.0 ug/mL with 1.0 ug/mL mAb-ZAP in test [1] stood at 49.3%.

B1: Ovr110.Q19 (antibody, IgG1, V domains shown)
VH: DVLLQESGPGLVKASQSLSLTCSVTGYSITSGYFWNWIRQFPGNKLEWMGYISYDGGNSYNPSLKNRISITRDTSKNQFFLRMKSVTAEDTATYYCARKALWLRFDYWGQGTTLTVSS
VL: EIVLTQSPAIMSVYLGEKVTMTCSASLSVSYMHWYQQKSSTSPKLWIYDTSKVASGVPGRFSGSGSGNSYSLTISSMEAEDVATYYCFQGSGYPFTFGSGTKLEIKR
notes: Mouse hybridoma MAb; also called Q19.6; Ovr110.Q19.6
Turning to B1, the signal/noise ratio in [2] is 4.8; in test [3] it was 4.7; in test [4] it was 6.6; in [6], 11.7; in test [7], 1.3; in test [8] it was 1.1. Further, the figures for the signal/noise ratio in test [13], in test [17] and in test [18] were 1.2, 1 and 1, respectively. Moreover, the “% Cells Positive” value in test [5] was determined as 95.2%; in [11], 95.7%; in test [14], 91.9%; in test [15], 98.9%; in test [16], 95.6%. Further, the MFI in [5] was 4.64; in test [14], 5.25; in test [16], 4.11. The “Percentage growth compared to wells with media alone; ZR-75-1; MAb 0.4 ug/mL with 1.0 ug/mL mAb-ZAP” value in test [9] amounted to 28.1%. Further, the “Percentage growth compared to wells with media alone; ZR-75-1; MAb 2.0 ug/mL with 1.0 ug/mL mAb-ZAP” value in test [9] came to 46.5%. In addition, in [10], the “Percentage growth compared to wells with media alone; SKBR3; MAb 0.4 ug/mL with 1.0 ug/mL mAb-ZAP” value came out at 49.8%. The “Percentage growth compared to wells with media alone; SKBR3; MAb 2.0 ug/mL with 1.0 ug/mL mAb-ZAP” value in test [10] came to 25%. Moreover, the “Mean Fluorescence Intensity (MFI)” value was 24.5 in [11] and 10.4 in test [15]. The Kd (usually the equilibrium constant for the complex coming apart) in [12] worked out at 530 pM.

B2: Ovr110.Q11 (antibody, V domains shown)
VH: DVQLQESGPGLVKPSQSLSLTCSVTGYSITSGYFWSWIRQFPGNKLEWMGFISYDGTNSYNPSLKNRISITRDTSKNQFFLRLNSVTKEDTATYYCARKLLWLRFDYWGQGTTLTVSS
VL: ENVLTQSPAIMSASPGEKVTMTCSASSSVSYMHWYQQKSSTSPKLWIYDTSKLASGVPGRFSGSGSGNSYSLTISSMEAEDVATYYCFQGSGYPFTFGSGTKLEIKR
notes: Mouse hybridoma MAb; also called Q11.12.3; Ovr110.Q11.12.3
As for B2, the signal/noise ratio worked out at 4.5 in test [2]; 4.7 in test [3]; 6.4 in [4]; 11.7 in [6]; 1.3 in test [7]; 1 in [8]. In addition, the values for the signal/noise ratio in [13], in [17] and in test [18] were 1.2, 1 and 1, respectively. For the same molecule, the “% Cells Positive” value in test [5] worked out at 98.4%; in test [11] it was 95.7%; in test [14], 93.8%; in test [15] it was 98.7%; in test [16], 96.4%. The MFI was 5.95 in test [5], 5.47 in test [14] and 4.68 in [16]. The “Mean Fluorescence Intensity (MFI)” value is 26 in [11] and 9.71 in test [15]. The Kd in test [12] amounted to 740 pM.

B3: Ovr110.Q23 (antibody, IgG1, V domains shown)
VH: QVQLQQSGAELMKPGASVKISCKATGYTFSSYWIEWVKQRPGHGLEWIGEILPGSGITKYNEKFKTKATFTADTSSNTAYMQLSSLTSEDSAVYYCARYYFGSVNFYFDCWGQGTTLTVSS
VL: QAVVTQESALTTSPGETVTLTCRSSTGAVTTSNYANWVQEKPDHLFTGLIGGTDNRPPGVPARFSGSLIGDKAALTITGTQTEDEAIYFCALWYSNHWVFGGGTKLTVLG
notes: Mouse hybridoma MAb; also called Q23.6
Take B3: the signal/noise ratio was 1 in test [2]; 2.2 in test [3]; 6.7 in [4]; 2.9 in test [6]; 1.4 in test [7]; 2.8 in test [8]. Moreover, the signal/noise ratio in test [13] came out at 1.2; in test [17] it was 6; in test [18] it was 5.2. In addition, the “% Cells Positive” value in test [5] worked out at 93.9%; in test [11], 94.7%; in test [14], 92.6%; in test [15], 97.1%; in [16], 92.7%. Moreover, the MFI worked out at 3.85 in test [5], 4.98 in test [14] and 3.25 in test [16]. For the same molecule, the “Percentage growth compared to wells with media alone; ZR-75-1; MAb 0.4 ug/mL with 1.0 ug/mL mAb-ZAP” value in [9] amounted to 37.5%. For the same molecule, the “Percentage growth compared to wells with media alone; ZR-75-1; MAb 2.0 ug/mL with 1.0 ug/mL mAb-ZAP” value in test [9] was found to be 45.5%. Also, in test [10], the “Percentage growth compared to wells with media alone; SKBR3; MAb 0.4 ug/mL with 1.0 ug/mL mAb-ZAP” value came to 68.9%. In test [10], the “Percentage growth compared to wells with media alone; SKBR3; MAb 2.0 ug/mL with 1.0 ug/mL mAb-ZAP” value is 73.6%. Also, the “Mean Fluorescence Intensity (MFI)” value in test [11] is 17.9; in [15], 4.35. In addition, in test [12], the Kd is 5660 pM.

B4: Ovr110.Q12 (antibody, IgG1, V domains shown)
VH: QVQLQQPGAELVKPGATVKLSCKTSGYTFTSYWMHWVKQRPGQGLEWIGEIDPSDSYTNYNQKFKGKATLTVDTSSTTAYMQLSSLTSEDSAVYYCAREYGNNDAMDYWGQGTSVTVSS
VL: QIVLTQSPAIMSASPGEKVTMTCSASSGISYMHWYQQKPGTTPKRWIYDASKLASGVPSRFSGSGSGTSYSLTISSMEAEDAATYYCHQRRSYPFTFGSGTKLEIKR
notes: Mouse hybridoma MAb; also called Q12.2; Ovr110.Q12.2
With B4, the signal/noise ratio in test [2] was found to be 3.6; in test [3], 4.3; in test [4], 6.7; in test [6], 11.6; in [7] it was 1.4; in test [8], 1. The results for the signal/noise ratio in test [13], in test [17] and in test [18] were 1.2, 1.1 and 1.2, respectively. Besides, the “% Cells Positive” value amounted to 95.3% in test [5]; 96.6% in [11]; 94.3% in test [14]; 98.8% in [15]; 94.1% in test [16]. Moreover, the MFI in test [5] was determined as 4.86; in test [14], 5.25; in test [16], 3.76. The “Mean Fluorescence Intensity (MFI)” value in [11] was 31.8; in test [15], 12. The same molecule displayed a Kd in test [12] of 640 pM.

The values are drawn from patent US20100136009A1 (DIADEXUS, published 2010).
